According to patent US20120094909A1 (Bristol-Myers Squibb, published 2012):
Where “and” joins values, the source holds several entries; their conditions need not be identical. Equal entries are not always repeated.

B1: 2012A04 (designed binder)
chain: MGVSDVPRDLEVVAATPTSLLISWRPPSNGHGYYRITYGETGGNSPVQEFTVPVNEGTATISGLKPGVDYTITVYAVEFPFKWSGYYHRPISINYRTEIDKPSQHHHHHH
notes: Anti-PCSK9 Adnectin, His6-tagged
B2: 2013E01 (designed binder)
chain: MGVSDVPRDLEVVAATPTSLLISWVPPSDDYGYYRITYGETGGNSPVQEFTVPIGKGTATISGLKPGVDYTITVYAVEFPWPHAGYYHRPISINYRTEIDKPSQHHHHHH
notes: Anti-PCSK9 Adnectin, His6-tagged, unmodified (not PEGylated); also called ATI001081
B3: ATI001174 (designed binder)
chain: MGVSDVPRDLEVVAATPTSLLISWVPPSDDYGYYRITYGETGGNSPVQEFTVPIGKGTATISGLKPGVDYTITVYAVEFPWPHAGYYHRPISINYRTEIEKPCQ
modifications: PEGylated on the cysteine of the C-terminal EIEKPCQ tail
notes: PEGylated, non-His-tagged cysteine mutant of 2013E01; also called ATI-1174; ATI1174
B4: SABA2.1 (designed binder)
chain: MGVSDVPRDLEVVAATPTSLLISWPKYDKTGHYYRITYGETGGNSPVQEFTVPTRQTTATISGLKPGVDYTITVYAVSKDDYYPHEHRPISINYRTEIDKPSQHHHHHH
B5: SABA4.1 (designed binder)
chain: MGVSDVPRDLEMVAATPTSLLISWEDDSYYSRYYRITYGETGGNSPVQEFTVPSDLYTATISGLKPGVDYTITVYAVTYDVTDLIMHEPISINYRTEIDKPSQHHHHHH
notes: Carries a scaffold mutation; SABA5 is the scaffold-perfect version

Key:
[1] = biological target: T1, human PCSK9 (proprotein convertase subtilisin kexin type 9) (human, UniProt Q8NBP7 31-692); assay: FRET, competitor EGFA peptide
T1 construct: Directly immobilized (SPR ProteOn), biotinylated (BLI), or in solution, depending on the assay; also called hPCSK9
From the text: (§1) Table 11 summarizes the overall data from these three FRET assays.

cynomolgus monkey PCSK9 [2] = biological target: T2, cynomolgus monkey PCSK9 (cynomolgus monkey, UniProt A0A7N9D9N8 150-747); assay: FRET, competitor EGFA peptide
T2 construct: also called cyno PCSK9; cPCSK9
From the text: as §1

[3] = biological target: T1, human PCSK9 (proprotein convertase …); assay: FRET direct binding, anti-his6 antibody
From the text: as §1

[4] = biological target: T1, human PCSK9 (proprotein convertase …); assay: SPR ProteOn, PCSK9 immobilized, 25 C
Procedure: (§2) The binding characteristics were characterized by Surface Plasmon Resonance (SPR). […] This allowed kinetic determination in the absence of regeneration. […] Evaluation of the kinetic parameters was performed using the Langmuir interaction model and constant parameter fitting with the ProteOn Manager software.

cynomolgus monkey PCSK9 [5] = biological target: T2, cynomolgus monkey PCSK9; assay: SPR ProteOn, PCSK9 immobilized, 25 C
Procedure: as §2

[6] = biological target: T1, human PCSK9 (proprotein convertase …); assay: SPR ProteOn, 25 C
Procedure: as §2

cynomolgus monkey PCSK9 [7] = biological target: T2, cynomolgus monkey PCSK9; assay: SPR ProteOn, 25 C
Procedure: as §2

[8] = biological target: T1, human PCSK9 (proprotein convertase …); assay: cell-based or functional assay
[9] = biological target: T1, human PCSK9 (proprotein convertase …); assay: FRET, competitor ATI000972
From the text: as §1

[10] = biological target: T1, human PCSK9 (proprotein convertase …); assay: ITC, 37 C
Procedure: (§3) Solution phase binding was measured in 25 mM HEPES, pH 7.41, 150 mM NaCl at 37° C.

[11] = biological target: T1, human PCSK9 (proprotein convertase …); assay: KinExA, solution phase
Procedure: Due to technical limitations, the lowest concentration of Adnectins that could be tested was 1 nM.

[12] = biological target: T1, human PCSK9 (proprotein convertase …); assay: BLI, biotinylated hPCSK9 on sensor tips
[13] = biological target: T1, human PCSK9 (proprotein convertase …); assay: SPR Biacore, ATI-1081 captured on anti-His antibody, hPCSK9 in flow, 25 C
Procedure: The binding characteristics were characterized by Surface Plasmon Resonance (SPR). […] […] Duplicate experiments for PRD460 were performed on different days. Kinetic determinations were performed at 25° C. Evaluation of the kinetic parameters was performed using the 1:1 Binding algorithm on the BIACORE® Evaluation software.

[14] = biological target: T1, human PCSK9 (proprotein convertase …); assay: ITC, 37 C, average of 3 experiments
Procedure: as §3

human serum albumin [15] = biological target: T3, human serum albumin (human, UniProt P02768 25-609); assay: SPR (Biacore), albumin captured on chip, SABA in flow
T3 construct: also called HSA
Procedure: (§4) The kinetics of selected SABA clones purified from HTPP and/or midscaled material described in Examples 5A and 5B were determined by capturing the respective serum albumin (HSA/RhSA/MuSA) on the surface of a Biasensor CMS chip and flowing a concentration series of SABAs over both the reference flow cell and the captured albumins. In addition, binding to albumin was carried out under various pH conditions ranging from pH 5.5 to pH 7.4.

rhesus serum albumin = biological target: T4, rhesus serum albumin (rhesus, UniProt Q28522 17-600); assay: as above
T4 construct: also called RhSA
Procedure: as §4

human serum albumin [16] = biological target: T3, human serum albumin; assay: SPR (Biacore), albumin captured on chip, SABA in flow; n = 6
Procedure: as §4

human serum albumin [17] = biological target: T3, human serum albumin; assay: SPR (Biacore), albumin captured on chip, SABA in flow; n = 4
Procedure: as §4

Row | Binder | EC50 [1] [nM] | IC50 [1] [nM] | EC50 (cynomolgus monkey PCSK9 [2]) [nM] | EC50 [3] [nM] | Kd (cynomolgus monkey PCSK9 [5]) [nM] | koff (cynomolgus monkey PCSK9 [5]) [s⁻¹] | kon (cynomolgus monkey PCSK9 [5]) [M⁻¹ s⁻¹] | Kd [6] [nM] | Kd (cynomolgus monkey PCSK9 [7]) [nM] | LDLR Depletion EC50 [8] [nM] | IC50 [9] [nM] | Kd [11] [nM] | koff [12] | kon [12] | koff (human serum albumin [15]) [s⁻¹] | Kd (rhesus serum albumin) [nM] | koff (rhesus serum albumin) [s⁻¹] | further results
1 | B1 | 2.1 | 2.1 | 70.3 | 1.4 | 24.3 | 0.00475 | 195000 | 0.25 | 24.3 | 12 | 1.2 |  |  |  |  |  |  | Kd [4]: 0.251 nM; koff [4]: 6.47e-05 s⁻¹; kon [4]: 259000 M⁻¹ s⁻¹
2 | B2 | 1.6 | 1.6 | 12.5 | 0.9 | 8.1 | 0.00177 | 219000 | 0.29 | 8.1 | 10 | 1.8 | 0.0695 | 0.000837 s⁻¹ and 0.000349 s⁻¹ | 546000 M⁻¹ s⁻¹ and 829000 M⁻¹ s⁻¹ |  |  |  | Ka [10]: 7.1e+08 M⁻¹; Kd [10]: 1.4 nM; Stoichiometry (N) [10]: 0.926; ΔH [10]: -26.6 kcal/mol; ΔS [10]: -45.4 cal/mol °C; Kd [13]: 6.7 nM; koff [13]: 0.000245 s⁻¹; kon [13]: 36500 M⁻¹ s⁻¹
3 | B3 |  |  |  |  |  |  |  |  |  |  |  | 0.223 | 0.000901 s⁻¹ | 126000 M⁻¹ s⁻¹ |  |  |  | Ka [14]: 7.5e+08 M⁻¹; Kd [14]: 1.3 nM; Stoichiometry (N) [14]: 0.857; ΔH [14]: -29.9 kcal/mol; ΔS [14]: -55.8 cal/mol °C; Kd [12]: 7.4 nM
4 | B4 |  |  |  |  |  |  |  |  |  |  |  |  |  |  | 0.000171 | 63.6 | 0.000442 | Kd (human serum albumin [16]): 33.8 nM
5 | B5 |  |  |  |  |  |  |  |  |  |  |  |  |  |  | 0.000782 | > 1000 | 0.00383 | Kd (human serum albumin [17]): 412 nM
